Molecular target: T1, B7-H3 of cynomolgus monkeys (Macaca fascicularis, UniProt A0A7N9CYV2)
T1 sequence (A0A7N9CYV2 29-534): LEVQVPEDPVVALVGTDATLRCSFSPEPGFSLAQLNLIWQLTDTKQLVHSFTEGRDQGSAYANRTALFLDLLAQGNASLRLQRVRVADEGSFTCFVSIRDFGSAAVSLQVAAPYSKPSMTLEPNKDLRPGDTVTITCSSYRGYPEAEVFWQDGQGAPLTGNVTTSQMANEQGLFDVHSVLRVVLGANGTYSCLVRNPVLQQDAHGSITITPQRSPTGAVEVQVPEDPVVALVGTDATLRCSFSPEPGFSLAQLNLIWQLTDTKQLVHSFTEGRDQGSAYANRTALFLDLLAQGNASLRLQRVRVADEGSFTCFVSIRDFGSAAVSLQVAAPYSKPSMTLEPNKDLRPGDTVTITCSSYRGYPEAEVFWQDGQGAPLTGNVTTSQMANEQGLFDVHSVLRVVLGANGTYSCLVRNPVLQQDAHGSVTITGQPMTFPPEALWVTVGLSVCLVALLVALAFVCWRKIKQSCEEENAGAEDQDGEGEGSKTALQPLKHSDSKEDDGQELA
Assay: Cross-reactivity of anti-B7-H3 antibody
Assay type: binding

- cross-reactivity with B7-H3 of cynomolgus monkeys: cross-reactive
B1: mAb-A: anti-B7-H3 antibody isolated from hybridoma cells; murine VL SEQ ID NO:15, VH SEQ ID NO:16 (antibody, V domains shown)
VH: EVQQVESGGDLVKPGGSLKLSCAASGFTFSSYGMSWVRQTPDKRLEWVATINSGGSNTYYPDSLKGRFTISRDNAKNTLYLQMRSLKSEDTAMYYCARHDGGAMDYWGQGTSVTVSS
VL: DIQMTQSPASLSVSVGETVTITCRASESIYSYLAWYQQKQGKSPQLLVYNTKTLPEGVPSRFSGSGSGTQFSLKINSLQPEDFGRYYCQHHYGTPPWTFGGGTNLEIK
modifications: Synthetic: amino acid sequence of the VH Domain of anti-B7-H3 mAb-A; Synthetic: amino acid sequence of the VL Domain of the murine anti-B7-H3 antibody mAb-A
